± gives the uncertainty stated by the source.
Test: self-splicing fitness, log relative to wild type (ln ratio); higher = more splicing; Tetrahymena group I intron in knt gene, E. coli kanamycin selection, DiMSum; sequences stand for … in CUCUCU…GGAGGGAAAAGUUAUCAGGCAUGCACCUGGUAGCUAGUCUUUAAACCAAUAGAUUGCAUCGGUUUAAAAGGCAAGACCGUCAAAUUGCGGGAAAGGGGUCAACAGCCGUUCAGUACCAAGUCUCAGGGGAAACUUUGAGAUGGCCUUGCAAAGGGUAUGGUAAUAAGCUGACGGACAUGGUCCUAACCACGCAGCCAAGUCCUAAGUCAACAGAUCUUCUGUUGAUAUGGAUGCAGUUCACAGACUAAAUGUCGGUCGGGGAAGAUGUAUUCUUCUCAUAAGAUAUAGUCGGACCUCUCCUUAAUGGGAGCUAGCGGAUGAAGUGAUGCAACACUGGAGCCGCUGGGAACUAAUUUGUAUGCGAAAGUAUAUUGAUUAGUUUUGGAGUACUCGUGGUCG
Outline: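 Colonies from six replicate transformations of E. coli BL21(DE3) were pooled and amplicon-sequenced on an Illumina HiSeq 2500. The library placed an intron with all eight P1ex-region nucleotides randomised inside the knt kanamycin-resistance gene on pET-22b(+), and cells grew overnight at 37°C or 30°C on LB agar with or without 25 μg/mL kanamycin (plus 100 μg/mL carbenicillin, 50 μM IPTG, 0.2% rhamnose). Fitness is the DiMSum error-weighted combination of wild-type-normalised replicate fold changes, kanamycin versus none.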

| Sequence | self-splicing fitness (ln) (30 °C) | self-splicing fitness (ln) (37 °C) |
| --- | --- | --- |
| UGUUAGCAAUAUUACGCACA | -1.21 ± 0.12 | -0.549 ± 0.11 |
| UCCUAGCAAUAUUACGGGCC | -2.79 ± 0.12 | -1.17 ± 0.11 |
| CAGUAGCAAUAUUACGCCGU | -2.93 ± 0.36 | -0.37 ± 0.19 |
| CAUCAGCAAUAUUACGUGUC | -3.93 ± 0.19 | -1.08 ± 0.12 |
| UAUAAGCAAUAUUACGGGUG | -0.65 ± 0.074 | 0.0941 ± 0.12 |
| UUACAGCAAUAUUACGCAGA | -1.84 ± 0.14 | -0.823 ± 0.12 |
| CAAAAGCAAUAUUACGCGUC | -3.72 ± 0.24 | -1.86 ± 0.18 |
| GUCAAGCAAUAUUACGCCAA |  | -1.52 ± 0.28 |
| UAGCAGCAAUAUUACGUUCG | -0.326 ± 0.069 | 0.165 ± 0.091 |
| CUUCAGCAAUAUUACGCGAC | -2.88 ± 0.31 | -1.75 ± 0.41 |
| GAUUAGCAAUAUUACGGGUC |  | -2.78 ± 0.34 |
| AUCGAGCAAUAUUACGGACU | -0.916 ± 0.16 | -0.737 ± 0.19 |
| ACUAAGCAAUAUUACGCGUU | -3.36 ± 0.13 | -1.58 ± 0.11 |
| UGCAAGCAAUAUUACGUUGU | -4.31 ± 0.24 | -2.78 ± 0.2 |
| AUCGAGCAAUAUUACGGGUG | -3.28 ± 0.14 | -1.89 ± 0.12 |
| GUGCAGCAAUAUUACGGAAG | -3.19 ± 0.24 | -1.77 ± 0.25 |
| GGCUAGCAAUAUUACGAAAG | -2.44 ± 0.26 | -2.4 ± 0.44 |
| GUUGAGCAAUAUUACGGGUA | -2.46 ± 0.26 |  |
| GUUUAGCAAUAUUACGCACA | -0.867 ± 0.12 | -0.0205 ± 0.14 |
| GAGGAGCAAUAUUACGUGUC | -3.51 ± 0.27 | -1.91 ± 0.2 |
| GUUGAGCAAUAUUACGGCGU | -1.02 ± 0.13 | -0.302 ± 0.2 |
| UCCGAGCAAUAUUACGGGCU | -4.07 ± 0.24 | -2.97 ± 0.2 |
| UAUAAGCAAUAUUACGAAGG | -2.23 ± 0.21 | -1.19 ± 0.23 |
| UAAAAGCAAUAUUACGCCCG | -0.0582 ± 0.21 | 0.323 ± 0.23 |
| UUGAAGCAAUAUUACGAAGG | -1.42 ± 0.13 | -0.248 ± 0.17 |
| ACGCAGCAAUAUUACGGGCG | -1.5 ± 0.063 | -1.3 ± 0.072 |

| Sequence | self-splicing fitness (ln) (30 °C) | self-splicing fitness (ln) (37 °C) |
| --- | --- | --- |
| UCCUAGCAAUAUUACGAGGU | -3.53 ± 0.19 | -1.45 ± 0.13 |
| GCUUAGCAAUAUUACGUGAG | -1.45 ± 0.07 | -1.2 ± 0.071 |
| GUGCAGCAAUAUUACGCGCC | -3.58 ± 0.4 | -1.95 ± 0.33 |
| GGUUAGCAAUAUUACGAUUU | 0.309 ± 0.089 | 0.0839 ± 0.12 |
| UUGAAGCAAUAUUACGGACU | 0.0826 ± 0.16 | 0.0377 ± 0.12 |
| UGCGAGCAAUAUUACGUCGG |  | -1.91 ± 0.26 |
| GGUAAGCAAUAUUACGUAUC | -3.54 ± 0.23 | -1.39 ± 0.45 |
| CUAAAGCAAUAUUACGUUUA | -4.12 ± 0.16 | -2.81 ± 0.17 |
| UAAAAGCAAUAUUACGCAUC | -2.95 ± 0.15 | -2.36 ± 0.21 |
| GGGCAGCAAUAUUACGCGGC |  | -1.26 ± 0.38 |
| AUCCAGCAAUAUUACGGCCG | -1.22 ± 0.097 | -0.00834 ± 0.12 |
| AGAAAGCAAUAUUACGUAGA | -1.52 ± 0.12 | -1.52 ± 0.14 |
| GGCCAGCAAUAUUACGUAAU | -0.304 ± 0.098 | -0.62 ± 0.098 |
| GAUAAGCAAUAUUACGUCCA | -1.72 ± 0.15 | -0.215 ± 0.17 |
| CUUCAGCAAUAUUACGUAUU | -3.18 ± 0.17 | -2.37 ± 0.2 |
| CCAAAGCAAUAUUACGGUGA | -3.77 ± 0.25 | -4.04 ± 0.34 |
| AGUUAGCAAUAUUACGACCA | -0.921 ± 0.093 | -0.258 ± 0.13 |
| AGAAAGCAAUAUUACGACCU | 0.52 ± 0.099 | 0.265 ± 0.11 |
| GUAGAGCAAUAUUACGUCAA | -2.01 ± 0.14 | -2.38 ± 0.29 |
| UAUCAGCAAUAUUACGAGCA | -0.827 ± 0.084 | -0.124 ± 0.11 |
| UCUCAGCAAUAUUACGGGUU | -2.06 ± 0.081 | -1.27 ± 0.1 |
| GCCUAGCAAUAUUACGAGAU | -1.88 ± 0.12 | -0.45 ± 0.11 |
| AGCCAGCAAUAUUACGUGUA | -3.52 ± 0.14 | -1.34 ± 0.11 |
| AUCGAGCAAUAUUACGAGGC |  | -1.13 ± 0.28 |
| AUUGAGCAAUAUUACGACUC | -2.94 ± 0.29 | -1.59 ± 0.27 |
| CACCAGCAAUAUUACGUUAA | -3.35 ± 0.095 | -2.37 ± 0.11 |

| Sequence | self-splicing fitness (ln) (30 °C) | self-splicing fitness (ln) (37 °C) |
| --- | --- | --- |
| ACUAAGCAAUAUUACGGUUU | -2.05 ± 0.091 | -0.745 ± 0.096 |
| CCCCAGCAAUAUUACGCAUU | -4.14 ± 0.17 | -2.81 ± 0.18 |
| GCCUAGCAAUAUUACGAUUG | -2.49 ± 0.23 | -2.32 ± 0.26 |
| CAUUAGCAAUAUUACGAGCC | -2.89 ± 0.23 | -2.08 ± 0.27 |
| UCAAAGCAAUAUUACGAUUG | -2.46 ± 0.14 | -0.73 ± 0.11 |
| UGGGAGCAAUAUUACGGAGC | -3.98 ± 0.46 | -1.65 ± 0.5 |
| GUUCAGCAAUAUUACGAGUC | -1.32 ± 0.15 | -0.628 ± 0.17 |
| UGUCAGCAAUAUUACGUUAU | -3.1 ± 0.12 | -1.77 ± 0.11 |
| GGUAAGCAAUAUUACGGGUA | -1.98 ± 0.22 | -1.71 ± 0.18 |
| CAAAAGCAAUAUUACGGGGA | -3.26 ± 0.15 | -2.36 ± 0.15 |
| UAGCAGCAAUAUUACGUGUA | -1.17 ± 0.062 | -0.62 ± 0.077 |
| GGUGAGCAAUAUUACGAACG | -0.652 ± 0.13 | -1.23 ± 0.17 |
| CAUUAGCAAUAUUACGGCGG | 0.0154 ± 0.093 | 0.252 ± 0.12 |
| UGUUAGCAAUAUUACGAUUG | -0.695 ± 0.084 | -0.795 ± 0.12 |
| UGAUAGCAAUAUUACGUGAC | -3.54 ± 0.29 | -1.82 ± 0.29 |
| GCGCAGCAAUAUUACGGUCC | -1.22 ± 0.12 | 0.23 ± 0.17 |
| UCGCAGCAAUAUUACGCUAU | -5.08 ± 0.36 | -3 ± 0.17 |
| AUUCAGCAAUAUUACGGUUA | -0.544 ± 0.089 | -0.305 ± 0.08 |
| AGGCAGCAAUAUUACGGACC | -0.728 ± 0.14 | -0.53 ± 0.18 |
| GGUAAGCAAUAUUACGGCGU | 0.139 ± 0.13 | -0.0376 ± 0.15 |
| UCGCAGCAAUAUUACGGGUG | -1.16 ± 0.053 | -1.03 ± 0.074 |
| GGCCAGCAAUAUUACGUGGA | -4.07 ± 0.25 | -2.49 ± 0.17 |
| AGAAAGCAAUAUUACGAUAG | -3.4 ± 0.38 | -1.02 ± 0.16 |
| CUCCAGCAAUAUUACGUGUU | -3.62 ± 0.13 | -2.31 ± 0.11 |
| UGCCAGCAAUAUUACGGAAU | -2.74 ± 0.15 | -1.95 ± 0.11 |

— the supplement of paper PMC7877785
